Measured values published in FireProtDB.

Settings: Bos taurus; pH 8; 30 °C; GdnHCl; CD; borate 10 mM

Sequence of Phospholipase A2 wild type, P00593 (P00593 whole entry): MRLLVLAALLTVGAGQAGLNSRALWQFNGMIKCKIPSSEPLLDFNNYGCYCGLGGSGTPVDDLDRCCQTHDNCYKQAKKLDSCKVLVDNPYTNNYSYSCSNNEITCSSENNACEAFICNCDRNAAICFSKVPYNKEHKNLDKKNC

**Q.** What does the source list for Phospholipase A2 wild type, P00593?
**A.** denaturant m value: 1.47 kcal/mol/M; denaturant midpoint (higher = more stable): 6.9 M; unfolding free energy: 9.5 kcal/mol
